Laboratory results: the supplement of paper PMC9112550, “Optimization of the antimicrobial peptide Bac7 by deep mutational scanning” (BMC Biology, 2022)

Tested on: Escherichia coli TOP10
Assay: shrunken log2 fold change of peptide-encoding DNA abundance (4.5 h post-induction vs induction); higher = less antimicrobial activity (less host growth inhibition)
Conditions: time post-induction: 4.5 h; library: site-saturation at positions 5, 18, 19, 20
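Also: peptides expressed intracellularly from a pBAD plasmid library in pooled LB shake-flask culture, induced with 0.3% L-arabinose, DNA abundance read by NGS, three biological replicates, DESeq2 with apeglm shrinkage.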

Sequence	shrunken log2 fold change
RRIRYRPPRLPRPRPRPDQRPRP	-0.24
RRIRKRPPRLPRPRPRPAYKPRP	0.354
RRIRHRPPRLPRPRPRPRRVPRP	0.36
RRIRARPPRLPRPRPRPSKFPRP	-0.163
RRIRRRPPRLPRPRPRPSWVPRP	-0.223
RRIRMRPPRLPRPRPRPGLCPRP	1.79
RRIRERPPRLPRPRPRPYILPRP	-2.27
RRIRDRPPRLPRPRPRPIVTPRP	0.171
RRIRVRPPRLPRPRPRPYIWPRP	-0.504
RRIRLRPPRLPRPRPRPYYHPRP	-0.712
RRIRGRPPRLPRPRPRPGAAPRP	1.43
RRIRERPPRLPRPRPRPLLVPRP	-0.441
RRIRARPPRLPRPRPRPPPWPRP	1.03
RRIRWRPPRLPRPRPRPWGTPRP	-0.0421
RRIRERPPRLPRPRPRPEHQPRP	0.0588
RRIRSRPPRLPRPRPRPLKKPRP	0.0577
RRIRMRPPRLPRPRPRPWRQPRP	0.331
RRIRSRPPRLPRPRPRPKWLPRP	0.104
RRIRCRPPRLPRPRPRPYGTPRP	0.016
RRIRKRPPRLPRPRPRPILAPRP	0.0492
RRIRPRPPRLPRPRPRPQPIPRP	0.0388
RRIRWRPPRLPRPRPRPGLVPRP	0.449
RRIRMRPPRLPRPRPRPRTSPRP	0.623
RRIRHRPPRLPRPRPRPCPDPRP	0.0299
RRIRERPPRLPRPRPRPEIVPRP	0.00903

Sequence	shrunken log2 fold change
RRIRTRPPRLPRPRPRPRTNPRP	-0.192
RRIRYRPPRLPRPRPRPSICPRP	-0.0533
RRIRSRPPRLPRPRPRPNMHPRP	-0.257
RRIRERPPRLPRPRPRPLAEPRP	0.17
RRIRDRPPRLPRPRPRPWTNPRP	-0.111
RRIRQRPPRLPRPRPRPPPNPRP	0.508
RRIRTRPPRLPRPRPRPQLEPRP	0.341
RRIRGRPPRLPRPRPRPNRHPRP	0.231
RRIRARPPRLPRPRPRPIASPRP	-0.0816
RRIRERPPRLPRPRPRPWTEPRP	0.027
RRIRGRPPRLPRPRPRPKNTPRP	0.232
RRIRVRPPRLPRPRPRPNTLPRP	-0.478
RRIRGRPPRLPRPRPRPDCRPRP	0.68
RRIRWRPPRLPRPRPRPRHNPRP	0.576
RRIRGRPPRLPRPRPRPQRWPRP	0.293
RRIRIRPPRLPRPRPRPYCDPRP	-0.0269
RRIRTRPPRLPRPRPRPTKAPRP	0.249
RRIRFRPPRLPRPRPRPDMRPRP	-0.000242
RRIRRRPPRLPRPRPRPWKFPRP	-0.0344
RRIRLRPPRLPRPRPRPFTTPRP	0.0966
RRIRLRPPRLPRPRPRPISAPRP	-0.053
RRIRARPPRLPRPRPRPMKSPRP	0.186
RRIRDRPPRLPRPRPRPAQDPRP	0.684
RRIRERPPRLPRPRPRPKVWPRP	0.332
RRIRDRPPRLPRPRPRPLWEPRP	0.0751

Sequence	shrunken log2 fold change
RRIRVRPPRLPRPRPRPQSKPRP	-0.172
RRIRTRPPRLPRPRPRPLGWPRP	0.811
RRIRPRPPRLPRPRPRPWAEPRP	0.166
RRIRRRPPRLPRPRPRPPAFPRP	1.08
RRIRGRPPRLPRPRPRPQHHPRP	-0.102
RRIRPRPPRLPRPRPRPPGRPRP	0.567
RRIRLRPPRLPRPRPRPESEPRP	-0.000997
RRIRPRPPRLPRPRPRPNCFPRP	-0.0261
RRIRRRPPRLPRPRPRPKSVPRP	0.0439
RRIRKRPPRLPRPRPRPSESPRP	0.0559
RRIRERPPRLPRPRPRPADFPRP	0.0432
RRIRGRPPRLPRPRPRPPFCPRP	0.592
RRIRLRPPRLPRPRPRPCHYPRP	-0.0212
RRIRSRPPRLPRPRPRPNWIPRP	-0.659
RRIRKRPPRLPRPRPRPGIFPRP	0.409
RRIRYRPPRLPRPRPRPIQYPRP	-0.18
RRIRGRPPRLPRPRPRPIIRPRP	0.07
RRIRDRPPRLPRPRPRPTLQPRP	0.981
RRIRVRPPRLPRPRPRPSNHPRP	-0.636
RRIRTRPPRLPRPRPRPTLTPRP	0.0461
RRIRRRPPRLPRPRPRPSTMPRP	-0.467
RRIRTRPPRLPRPRPRPVMDPRP	-0.478
RRIRTRPPRLPRPRPRPVAMPRP	-0.0639
RRIRNRPPRLPRPRPRPHQRPRP	0.244
RRIRERPPRLPRPRPRPRNHPRP	-0.367

Sequence	shrunken log2 fold change
RRIRLRPPRLPRPRPRPGQTPRP	0.277
RRIRQRPPRLPRPRPRPQNFPRP	-0.0918
RRIRKRPPRLPRPRPRPQRCPRP	0.269
RRIRERPPRLPRPRPRPVLGPRP	-0.101
RRIRKRPPRLPRPRPRPYATPRP	0.0656
RRIRSRPPRLPRPRPRPWQKPRP	0.14
RRIRARPPRLPRPRPRPKVGPRP	0.284
RRIRDRPPRLPRPRPRPEMIPRP	0.0934
RRIRARPPRLPRPRPRPIACPRP	0.0285
RRIRRRPPRLPRPRPRPHPHPRP	0.147
RRIRTRPPRLPRPRPRPKGGPRP	0.279
RRIRERPPRLPRPRPRPMDTPRP	-0.501
RRIRHRPPRLPRPRPRPNTAPRP	-0.246
RRIRSRPPRLPRPRPRPLNTPRP	-0.563
RRIRDRPPRLPRPRPRPRWRPRP	0.605
RRIRKRPPRLPRPRPRPIFAPRP	0.454
RRIRNRPPRLPRPRPRPWQEPRP	-0.0629
RRIRSRPPRLPRPRPRPLHVPRP	-0.245
RRIRSRPPRLPRPRPRPYNAPRP	-0.254
RRIRHRPPRLPRPRPRPHWFPRP	-0.198
RRIRNRPPRLPRPRPRPTLDPRP	0.221
RRIRWRPPRLPRPRPRPMRNPRP	0.315
RRIRNRPPRLPRPRPRPYWPPRP	-0.199
RRIRPRPPRLPRPRPRPWGHPRP	-0.0804
RRIRLRPPRLPRPRPRPEDTPRP	-0.00686

Sequence	shrunken log2 fold change
RRIRWRPPRLPRPRPRPNDEPRP	0.0507
RRIRKRPPRLPRPRPRPKQIPRP	0.0984
RRIRCRPPRLPRPRPRPTMLPRP	-0.096
RRIRLRPPRLPRPRPRPYRIPRP	-0.796
RRIRYRPPRLPRPRPRPEPIPRP	-0.103
RRIRCRPPRLPRPRPRPHDQPRP	0.0433
RRIRYRPPRLPRPRPRPEYVPRP	-0.0327
RRIRHRPPRLPRPRPRPERWPRP	0.357
RRIRTRPPRLPRPRPRPRRHPRP	0.0424
RRIRSRPPRLPRPRPRPFYYPRP	-0.615
RRIRTRPPRLPRPRPRPGFHPRP	-0.19
RRIRSRPPRLPRPRPRPLLTPRP	0.085
RRIRRRPPRLPRPRPRPKTMPRP	0.348
RRIRKRPPRLPRPRPRPFDYPRP	-0.121
RRIRARPPRLPRPRPRPANAPRP	0.301
RRIRPRPPRLPRPRPRPIKMPRP	0.0328
RRIRIRPPRLPRPRPRPTWTPRP	0.398
RRIRVRPPRLPRPRPRPRCIPRP	-0.661
RRIRRRPPRLPRPRPRPKMFPRP	-0.131
RRIRFRPPRLPRPRPRPDNNPRP	-0.4
RRIRMRPPRLPRPRPRPNKKPRP	-0.0238
RRIRIRPPRLPRPRPRPGWAPRP	0.22
RRIRHRPPRLPRPRPRPSITPRP	-0.569
RRIRFRPPRLPRPRPRPVVVPRP	-0.0228
RRIRERPPRLPRPRPRPVRGPRP	0.543

Sequence	shrunken log2 fold change
RRIRRRPPRLPRPRPRPGQAPRP	0.0103
RRIRKRPPRLPRPRPRPGYLPRP	-0.319
RRIRCRPPRLPRPRPRPCKTPRP	-0.0345
RRIRDRPPRLPRPRPRPFYVPRP	-0.0754
RRIRVRPPRLPRPRPRPSSKPRP	-0.0737
RRIRSRPPRLPRPRPRPTKDPRP	-0.105
RRIRHRPPRLPRPRPRPSIEPRP	-0.37
RRIRWRPPRLPRPRPRPWMKPRP	-0.225
RRIRHRPPRLPRPRPRPYKKPRP	-0.0963
RRIRVRPPRLPRPRPRPYFQPRP	-0.649
RRIRCRPPRLPRPRPRPFWAPRP	-0.0403
RRIRCRPPRLPRPRPRPWRIPRP	-0.321
RRIRIRPPRLPRPRPRPIQEPRP	0.0527
RRIRTRPPRLPRPRPRPYTYPRP	-0.489
RRIRKRPPRLPRPRPRPTMIPRP	-0.0569
RRIRDRPPRLPRPRPRPYVTPRP	-0.131
RRIRYRPPRLPRPRPRPIVTPRP	-0.015
RRIRVRPPRLPRPRPRPDTPPRP	-0.0915
RRIRNRPPRLPRPRPRPMMCPRP	-0.0344
RRIRRRPPRLPRPRPRPYEQPRP	-0.214
RRIRVRPPRLPRPRPRPGKDPRP	0.114
RRIRQRPPRLPRPRPRPLCNPRP	-0.178
RRIRHRPPRLPRPRPRPVKWPRP	0.421
RRIRNRPPRLPRPRPRPTYNPRP	-0.692
RRIRWRPPRLPRPRPRPWVHPRP	-0.597
